Measured values reported in publication PMC4258425.

What was measured:
Conditions in all cases: 100 mM Na2HPO4 pH 8.0, 22 °C
[1] = substrate: CC#CC(=O)C(=O)O; assay: hydratase kinetics; type: biochemical, Paraburkholderia phymatum
[2] = substrate: O=CCC(=O)O; assay: decarboxylase kinetics; type: biochemical, Bacillus subtilis
[3] = substrate: CC#CC(=O)C(=O)O; assay: hydratase kinetics; type: biochemical, Bacillus subtilis

Protein	Km [1]	kcat [1]	kcat/Km [1]	Km [2]	kcat [2]	kcat/Km [2]	Km [3]	kcat [3]	kcat/Km [3]
Bp4401 (Paraburkholderia phymatum STM815) (protein) PLTRIALRAGKPAAYRQALTEGIQRALIAEFNVPEDDIFMVISEQDESNFVYNRNYLDIQRSDDFVLIQLTVTNSRTQEQKKALYKRIVDNLAEYPGVRREDVFINLVEVLKENWSFGNGIAQYAL	5 ± 0.35 mM	14 ± 0.1 s⁻¹	2800 M⁻¹ s⁻¹						
YodA (Bacillus subtilis subsp. subtilis str. 168) (protein) PLLRFDVIEGRDEKSLQLLLDTAHQAMVEAFGVPERDRYQIVHQHPANELIIQDAGLGFQRTKDMVIISMTSKARTESQKEKLYALLAERLEKKCEISPDDLMVSITENGDADWSFGLGEAQFLNGKL				6.8 ± 0.94 mM	12.2 ± 1.1 s⁻¹	1300 M⁻¹ s⁻¹	0.27 ± 0.04 mM	0.03 ± 0.001 s⁻¹	111 M⁻¹ s⁻¹
